Assay results taken from the nanobody polyreactivity screen of Harvey et al. (2022).

Experiment: yeast display, Sf9 membrane polyspecificity reagent, FACS + sequencing; frameworks hold sequencing errors
How it was run: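 In a synthetic yeast display library (Saccharomyces cerevisiae BJ5465), nanobody expression was induced with galactose for 36–48 hours. FACS gates were set low and high (top ~1%) using anti-HA fluorescence for expression and streptavidin fluorescence for binding of the Sf9 membrane reagent. Each polyreactivity label is drawn from the gate of origin.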

Sequence	polyreactivity (PSR sort gate)
QVQLVESGGGLVQAGGSLRLSCAASGITFRGYVMGWYRQAPGKERELVADISRRGGSTYADSVKGRFTISRDNAKNTVYLQMNSLKPEDTAVYYCNAGWRPHNLNQVGYSSYGYYYWGQGTQVTVSS	high polyreactivity
QVQLVETGGGLVQAGGSLRLSCAASGNIFRAYPMGWYRQAPGKERELVARINSGAITNYADSVKGRFTISRDNAKNTVYLQMNSLKPDDTAVYYCARDTQYPYYFLMDYWGQGTQVTVSS	low polyreactivity
QVQLVESGGGLVQAGGSLRLSCASSGSTFVSYAMGWYRQAPGKERELVAGISWSGTRTYYADSVKGRFTISRDNAKNTVYLQMNSLKPEDTAVYYCAALDSSYNWYGYWGQGTQVTVSS	high polyreactivity
QVQLVESGGGLVQAGGSLRLSCAATGFTFSYYALGWYRQAPGKERELVAVISDRGGITYYADSVKGRFTISRDNAKNTVYLQMNSLKPEDTADYYCAAQNPRYNYRYYYWGHGTQVTVSS	low polyreactivity
QVQLVESGGGLVQAGGSLRLSCAASGITFAGYAMGWYRQAPGKERELVAAISRGGSTYYADSVKGRFTISRDNAKNTVYLQMNSLKPEDTAVYYCNTDDQQGYFTYTGWNYNYWGQGTQVTVSS	high polyreactivity
QVQLVESGGGLVQAGGSLRISCAASGSLFYRYAMGWYRQAPGKEREMVAAINDSGGGTYYADSVKGRFTISRDKAKNTVYLQMNSLKPEDTAVYYCAAATHNKHTARDDYWGQGTQVNVSS	low polyreactivity
QVQLVESGGGLVQAGGSLRLSCAASGGTFYLYAMGWYRQAPGKERELVAAISRSGGITYYADSVKGRFTISRDNAKNTVYLQMNSLKPEDTAVYYCDAAALSRYRLQEGYYWGQGTQVTVSS	high polyreactivity
QVQLVESGGGLVQAGGSLRLSCAASGGIFSAYDMAWYRQAPGKERELVAAINSGGSTNYADSVKGRFTISRDNAKNTVYLQMNSLKPEDTAVYYCAAAKVSWFGLKYYYWGQGTQVTVSS	high polyreactivity
QVQLVESGGGLVQAGGSLRLSCAASGRIFSSYAMGWYRKAPGKERELVAAISGSGGRTYYADSVKGRFTISRDNAKNTVYLQMNSLKPEDTAVYYCNARRRSPYSTGVAYDYWGQVTQVTVSS	high polyreactivity
QVQLVESGGGLVQPGGSLRLSCAASGFTFSKYAMGWYRQAPGKERELVAAISRSAGSTYYADSVKGRFTISRDNAKNTVYLQMNSLKPEDTAVYYCARDNPRRPSGYNYWGQGTQVTVSS	high polyreactivity
QVQLVESGGGLVQAGGSLRLSCAASGIIFAYNAMGWYRQAPGKEWELVAGITRNDGSTNYADSVKGRFTISRYNAMNTVYLQMNSLKPEDTAVYYCATGGWRWQRNPSYDYWGQGNQVTVSS	low polyreactivity
QVQLVESGGGLVQAGGSLRLSCAASGFIFRRYAMGWYRQAPGKERDLVAAIRSDRSTNYADSVKGRFTISLDNAKNTVYLQMNSLKPEDTAVYYCARPYRSHYGWGVRGFDYWGQGTQVTVSS	high polyreactivity
QVQLVESGGGLVQAGGSLRLSCAASGSIFYRNVMGWYRQAPGKERELVAAISQRGGSTYYADSVKGRFTISRDKAKNTVFLQMNSLKPEDTAVYYCNAASRGAGTSIWSWYDLWGQGTQVTVSS	low polyreactivity
QVQLVESGGGLVQAGGSLRLSCAASGSIFSDNAMGWYRQAPGKERELVAAITWSGGSTYYADSVKGRFTISRDNAKNTVYLQMNSLKPEDTAVYYCAADGDYYWYYHGTYDYWGQGTQVTVSS	low polyreactivity
QVQLEESGGGLVQAGGSLRLSCAATGSTIPYYAMGWYRQAPGKERELVARITSGDRTFYADSVKGRFTISRDNAKNTVYLQMNSLKPEDTAVYFCNAQVHYYSWYGYWGQGTQVTVSS	high polyreactivity
QVQLVESGGGLVQAGGSLRLSCAASGFTFSGNALGWYRQARGKERELVAAISVGGGRTYYADSVKGRFTISRDNAKNTVYLQMNSLKPEDTAVYYCARYTRRSETWRYDYWGQGTQVTVSS	high polyreactivity
QVQLVESGGGLVQAGGSLRLSCAASGSTFYKYAMGGYRQAPGKERELVASITSGGRTYYADSEKGRFTISRDNAKNTVYLQMNSLKPDDTAVYYCAKRYGRLTRYDYWGQGTQVTVSS	high polyreactivity
QVQRVESGGGLVQAGGSLRLSCAASGRIFIANAMGWYRQAPGKERELVAAISFSGGSTYYADSVKGRFTISRDHAKTTVYLQMNSLNPEDTAVYYCNALYTSYYRPSGMGYWGQGTQVTVSS	high polyreactivity
QVQLLETGGGLVQAGGSLRLSCAASGNTIIRYAMGWYRQAPGTERELVAAISYSGGRSYYADSVKGRFTISRDNAKYTVYLLMNSLKPEDTEVYYCIAASRYGGDYWGQVTQVTVSS	low polyreactivity
QVQLVESGGGLVQAGGSLRLSCAASGFTFKYYTMGWYRQAPGKERELVAVISRTGSTNYADSVKGRFTISRDNAKNTVYLQMNSLKPEDTAVYYFITARGKYAFFDVDYWGQGTQVTVTS	high polyreactivity
QVQLVESVGGLVQAGGSLRLSCAASGRIFGYNAMGWYRQAPGKEWELVAGITSVGRTYYADSVNGRFTISRDNAKNTVYLQMNSLKPEDTAVYYCNAASYSLAVTAEFEDMDYWGQGTQVTVSS	low polyreactivity
QVQLVESGGRLVQEGGSLRLRCAASGSIFSGYAMGWSRQAPGKERELVAVITRGGNTNYADSVKGRFTISRDNAKNTVSLQMNSLTPEDTAVYYCAVDLRKSYRHKFDFNYWGQGTQVTVSS	low polyreactivity

Sequence	polyreactivity (PSR sort gate)
QVQLVESGGALVQAGGSLRLSCAASGRTFGSYAMGWDRQAPGKESELVAAISRRGGSTYYADSVKGRFTISRDNAKNTVYLQLNSLKPEDSAVYYCAVRKASDYYYWGQGTQVTVSS	high polyreactivity
QVQLVESGRGLVQAGGSLRLRCAASGYTFTRYAMGWYRQAPRKESELVAAISTSGGRTYYSDSEKGRFTISRDNAKNTVYLQMNRLKPEDTAVYSCAAPIRDGRYDYWGQGTQVTVSS	high polyreactivity
QVQLVESGGGLVQAGGSLRLSCAASGITFSYNAMGWYRQAPGKERELVAAISSNSDSTYYADSVKGRFTISRDNAKNTVYLQMISLKPEDTAVYYCADDTPDAPDYSGFYYWGQGTQVTVSS	low polyreactivity
HVQLVESGGGLVQAGGSLRLSCPASGRTFADNAMGWYRQAPGKERELVASISSGTSTNYADSVKGRFTISRDNAQNTVYVQMNSLKPEDTAVYYCNADGPIWYTAVLGVGRYYGWTDYWGQGTQVTVSS	low polyreactivity
QVQLVESGGGLVQAGGSLRLSCAASGITFFHYAMGWYRQAPGKERELVATISWRAGSTYADSVKGRFTISRDNAKNTVYLQMNSLKPEDTAVYYCNAVWTYHSGSGGYLFDYWGQGTQVTVSS	low polyreactivity
QVQLVESGGGLVQAGGSLRLSCAASGRIFATNAMGWYRQAPGKERELVATITRSAGRTYYADSVKGRFTISRDNAKYTVYLQMNSLKPEDTAVYYCAASYWDTEPGYREYDYWGQGSQVTVSS	low polyreactivity
QVQLVESGGGLVQAGGSLRLSCAASGSTFVTYAKGWYRQAPGKERELVAAITSGGSTNYADSVKGRFTISRDNAKNTVYLQMNCLKPEDTEVYYCAARYYGAYGKQPRARYGYWGQGTQVTVSS	high polyreactivity
QVQLVESGGGLVQAGGSLRLSCAASGIILPKYSMGWYRQAPGKERELVAAITRSGGSTYYADSVKGRFTISRDNAKNTVYLQMNSLKPEDTAVYYCAARAANPTRTARYNYWGHGTQVTVSS	high polyreactivity
QVQLVESGGGLVQAGGSLRLSCAASGFTFVRNAMGWYRQAPGKERELVAAISGSGGRTYYADSVKGRFTISRDNAKNTVYLQMNSLKPEDTAVYDCNTASAYEYEYWGQGTQVTVSS	high polyreactivity
QDQLVESGGGLVQAGGSLRLSCAASGSIFIQYAMGWYRQAPGKERQFVAAITSGGGSTYYADSVKGRFTISRDNAMNTVYLQLNSLKPEDTAVYYCAVDRTRRPALPFVTLDRGYWGQGTQVTVSS	low polyreactivity
QVQLVESGGGLVQAGGSLRLSCAASGFTFDYYAMGRDIPAPGKERELVAAISRAGSTNYADSVKGRFTISRDNAKNTVYLQMNSLKPEDTAVYYCNKGYHSWSRLSQFGWSYDYWGQGTQVTVSS	high polyreactivity
QVQLVESGGGLVQAGGSLRLICAASGRIFGTNAIGWYRQAPGQEREVVATITRGGGNTYYADSVKGRFTISRDNAKNTVYLQMNSLKPEDTAVYYCAAKFHRFAWYAHYDYWGPGTQVTVSS	low polyreactivity
QVQLVESGGGLVQAGGSLRLSCAASGFIFQDYALGWYRQAPGKERELVAAISRSTGSTYYADSVKGRFTISRDNPKNTVYLQMNSLKPEDTAVYYCAKPRSWGYNWGQGTQVTVSS	high polyreactivity
QVQLVESGGGLVQAGGSLRLSCAASGIIFPTYAMGWYRQAPGKERELVAAISVSGGTTSYADSVKGRFTISRDNAKNTVYLQMNSLKPEDTAVYYCAKRPFSTRYDYWGQGTQVTVSS	high polyreactivity
QVQLVESGGGLVQAGGSLRLSCAASGSIFYRYAMGWYRQAPGKVRELVAAISSGSSTHYADSVKGRFTISRDNAKNTVYLQMNSLKPEDTAVYYCAARYRAYTSTRRFDYWGQGTQVTVSS	high polyreactivity
QVQLVESGGGLVQAGGSLRLSCAASGSIFRSNAMGWYRQAPGKERELVAAISWRGGRTYYADSVKGRFTISRDNAKNSVYLLMNSLKPEDTAVYYCATEVEPYAYGYWGQGTQVTVSS	high polyreactivity
QVQLVESGGGLVQAGGSLRLSCAASGRTIRYYTMGWYRQAPGKERELVATIRRGRTTYYADSVKGRFTISRDNEKNTVYLQMYSLKPEDTAVYYCAADFPSAEVDYWGQGTQVTVSS	low polyreactivity
QVQLVESGGGLVQAGGCLRLSCAASGRTFPRYAMGWYIQAPGKVRELVAVISFSGDSTSYADSVKGRFTISRDTAKNTVYIQMNSRKPEDTAVYYCIADYKSTVFRYSGSRNYWGQGTQVTVSS	low polyreactivity
QVQLVESGGGLVQAGGSLRLSCAASGSIFGGYAMGWYRQAPGKERELVARITDRGGSTDYADSVKGRFTISRDNAKNTVYLQMNSLKPEDTAVYYCAKRGDRYEKRPRDYWGQGTQVTVSS	low polyreactivity
HVKLVESGGGLVQAGGCLRLSCAASGSNFFHNAMGWYRQAPGKERELVATISWRSASTYYADSVKGRFTISRDNAKKTVYLQMNSLKPEDTAVYYCAAKLHYRQYYYRYGYDYWGQGTQVTVSS	high polyreactivity
QVQLVESGGGLVQAGGSLRLSCAASGFNFDGNAMGWYRQAPGKERELVAAISSSSGRTRYADSVTGRFSISRDNAKNTVYLQMNSLKPEDTAVYYCAARRQSTRPGFYYWGQGTQVTVSS	high polyreactivity
